Data on 3 molecules can be found in US20220127585A1 (UNIVERSITY OF SOUTH CAROLINA, published 2022).

Bridges are numbered along the chain shown (N, C = ends). Where no end group is shown, it is not given here. [ ]: non-standard residue; d: D form. The star is where a group is joined. C4 = C-terminal cap: phenethyl group with a meta isopentyloxy group, CC(C)CCOc1cccc(CCN*)c1; NMeR = CN[C@@H](CCCNC(=N)N)C(=O)O; PhAc = O=C(Cc1ccccc1)*

The target in test [1] is T1, B-Raf kinase (UniProt P15056 448-723, limits assumed). In words: binding affinity, Table 3 (method not given; the Methods describe fluorescence titration).
T1 sequence (P15056 448-723 limits assumed): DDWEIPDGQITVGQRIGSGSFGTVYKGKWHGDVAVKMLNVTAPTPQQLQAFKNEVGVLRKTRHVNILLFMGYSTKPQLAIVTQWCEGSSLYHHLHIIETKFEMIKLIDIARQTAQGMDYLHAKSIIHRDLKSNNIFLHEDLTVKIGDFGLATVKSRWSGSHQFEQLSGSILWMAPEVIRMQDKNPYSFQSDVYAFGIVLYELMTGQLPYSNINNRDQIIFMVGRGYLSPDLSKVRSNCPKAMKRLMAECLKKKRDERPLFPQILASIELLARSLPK
Test [2] concerns the target T1, B-Raf kinase. In words: intrinsic tryptophan fluorescence (ITF), column head 'Kd (ITF) (µM)'.
Protocol: Fluorescence intensity was measured with a Hitachi F-2500 Fluorescence Spectrophotometer. A 1.6 mL of protein solution (0.5 μM) was placed in a cuvette and equilibrated at 15° C. for 1 hour. After equilibration, small increments (2-15 μL) of the ligand solution were injected in the cuvette. The experiments were performed in 20 mM HEPES buffer (pH 7.5), 10 mM MgCl2, 30 mM NaCl. […] The slits were set at 10 and 10 nm in the excitation and emission respectively. To determine dilution effect of B-Raf (due to ligand addition) and any fluorescence effect by unbound ligand, a blank sample containing Trp with the same fluorescence signal was titrated with ligand additions as described above. The sample absorbance was kept below 0.1 to minimize the inner filter effect.
In test [3] the target is T1, B-Raf kinase. In words: direct binding affinity (Kd; values in FIG. 14).

B1: SEQ ID NO: 48 (KRHVAE) (peptide)
peptide: KRHVAE
modifications: lactam 1-6
The term Kd denotes the free concentration of one partner at which half of the binding sites on the other are occupied at equilibrium, for simple one-to-one binding. Higher therefore signals a looser complex. For B1, the Kd with B-Raf kinase [1] came to 300 nM.

B2: SEQ ID NO: 64 (K-MeR-a-PAE) (peptide)
peptide: K[NMeR][dA]PAE
modifications: also: cyclic, closure not given here
B2 registered a Kd in the test with B-Raf kinase [2] of 17 nM. For the same molecule, the “fold increase in direct binding affinity compared to SEQ ID NO: 1” value in the test with B-Raf kinase [3] came to 225 fold.

B3: SEQ ID NO: 63 (TRHVNI) with N-Cap N2 and C-Cap C4 (peptide)
peptide: PhAc-TRHVNI-C4
SMILES: CC[C@H](C)[C@H](NC(=O)[C@H](CC(N)=O)NC(=O)[C@@H](NC(=O)[C@H](Cc1c[nH]cn1)NC(=O)[C@H](CCCNC(=N)N)NC(=O)[C@@H](NC(=O)Cc1ccccc1)[C@@H](C)O)C(C)C)C(=O)NCCc1cccc(OCCC(C)C)c1
Turning to B3, the dissociation constant (Kd) with B-Raf kinase [2] was determined as 280 nM.
